For the assay, the target named is T1, biotinylated CD59 (Homo sapiens, UniProt P13987).
T1 construct: Recombinant soluble human CD59 with an additional C-terminal cysteine residue
T1 sequence (P13987 26-102 limits assumed): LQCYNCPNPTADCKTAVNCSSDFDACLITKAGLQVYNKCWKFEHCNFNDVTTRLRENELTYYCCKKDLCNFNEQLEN
Nature of the assay: mRNA-display cyclic peptide screen against CD59-biotin, NGS abundance after 6th selection round. The settings on record: for Percentage Seq I: counts normalised by total counts of sample Seq I; for Percentage Seq I / Percentage Seq II: percentage of the pool; for Percentage Seq I / Percentage Seq II / Percentage Average / Percentage of the pool, averaged across the two sequencing samples / Percentage of the pool, Seq I / Percentage of the pool, Seq II: sheet R6; for Percentage Seq II: counts normalised by total counts of sample Seq II; for Percentage Average: percentage of the pool averaged across the two sequencing samples; for Counts Seq I / Counts Seq II: raw NGS counts of peptide sequence; for Counts Seq I: sequencing sample Seq I; for Counts Seq I / Counts Seq II / Counts (raw counts for peptide sequence), Seq I / Counts (raw counts for peptide sequence), Seq II: sheet R6 (6th selection round); for Counts Seq II: sequencing sample Seq II; for Counts (raw counts for peptide sequence), Seq I: NGS sample Seq I; for Counts (raw counts for peptide sequence), Seq II: NGS sample Seq II; for Percentage of the pool, averaged across the two sequencing samples: average of Seq I and Seq II; for Percentage of the pool, Seq I: counts normalised by total counts of NGS sample Seq I; for Percentage of the pool, Seq II: counts normalised by total counts of NGS sample Seq II. A digest of the protocol:
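Peptide–mRNA fusions were made by in vitro translation with a customised PURE express kit. The kit lacked release factor 1 and methionine and was supplemented with […] initiator tRNA carrying N-chloroacetyl-d-tyrosine. Thioether macrocycles were formed, then enriched and amplified over iterative rounds on CD59-biotin immobilised on streptavidin beads. NGS read counts per sequence were recorded after the 6th selection round.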

In the case of YGASPTSLCSGI, the “Percentage Seq I” value was determined as 0.166%, the “Percentage Seq II” value is given as 0.186%, the “Percentage Average” value came to 0.176% and the “Counts Seq I” value is on record as 727. Further, the “Counts Seq II” value is recorded as 80.

As to CFGRRADPDGI, the “Percentage Seq I” value stood at 0.040%, the “Percentage Seq II” value was 0.030%, the “Percentage Average” value worked out at 0.035% and the “Counts Seq I” value is 174. The “Counts Seq II” value was found to be 13.

For the sequence CFQNRMAYGDI, the “Counts (raw counts for peptide sequence), Seq I” value stood at 34; the “Counts (raw counts for peptide sequence), Seq II” value amounted to 7; the “Percentage of the pool, averaged across the two sequencing samples” value was found to be 0.012%; the “Percentage of the pool, Seq I” value was found to be 0.008%. Further, the “Percentage of the pool, Seq II” value is recorded as 0.016%.

On to HVFGNRSLTRG, for which the “Counts (raw counts for peptide sequence), Seq I” value came out at 93; the “Counts (raw counts for peptide sequence), Seq II” value is reported as 5; the “Percentage of the pool, averaged across the two sequencing samples” value stood at 0.016%; the “Percentage of the pool, Seq I” value came out at 0.021%. The “Percentage of the pool, Seq II” value was 0.012%.

Turning to FVRGDLYSVRG, the “Percentage Seq I” value is recorded as 0.018%, the “Percentage Seq II” value is on record as 0.032%, the “Percentage Average” value is given as 0.025% and the “Counts Seq I” value is on record as 78. The “Counts Seq II” value turned out to be 14.

Take SWTWGNGSSVRG: the “Percentage Seq I” value is 0.187%, the “Percentage Seq II” value is given as 0.186%, the “Percentage Average” value is 0.186% and the “Counts Seq I” value is listed as 817. For the same sequence, the “Counts Seq II” value is on record as 80.

For the sequence ISWGNGSLAFY, the “Percentage Seq I” value is reported as 0.147%, the “Percentage Seq II” value was found to be 0.116%, the “Percentage Average” value was found to be 0.132% and the “Counts Seq I” value came out at 643. For the same sequence, the “Counts Seq II” value worked out at 50.

In the case of SAWGNRKIQYY, the “Counts (raw counts for peptide sequence), Seq I” value turned out to be 55; the “Counts (raw counts for peptide sequence), Seq II” value came to 5; the “Percentage of the pool, averaged across the two sequencing samples” value was found to be 0.012%; the “Percentage of the pool, Seq I” value is reported as 0.013%. Moreover, the “Percentage of the pool, Seq II” value was 0.012%.

Take WSTRERQISC: the “Counts (raw counts for peptide sequence), Seq I” value was found to be 70; the “Counts (raw counts for peptide sequence), Seq II” value is 3; the “Percentage of the pool, averaged across the two sequencing samples” value is recorded as 0.011%; the “Percentage of the pool, Seq I” value is given as 0.016%. The “Percentage of the pool, Seq II” value came to 0.007%.

SWTWGNRSSVRG: the “Percentage Seq I” value turned out to be 2.910%, the “Percentage Seq II” value was found to be 2.799%, the “Percentage Average” value came out at 2.855% and the “Counts Seq I” value is reported as 12733. Further, the “Counts Seq II” value was determined as 1206.

As to NSCPDWVRGSRT, the “Percentage Seq I” value was determined as 0.229%, the “Percentage Seq II” value is given as 0.262%, the “Percentage Average” value is given as 0.246% and the “Counts Seq I” value is 1002. Besides, the “Counts Seq II” value was 113.

In the case of ARGGPTWSRG, the “Percentage Seq I” value amounted to 0.034%, the “Percentage Seq II” value is on record as 0.037%, the “Percentage Average” value is recorded as 0.035% and the “Counts Seq I” value is 147. Besides, the “Counts Seq II” value is 16.

Take CFTQRIASGSK: the “Percentage Seq I” value came to 0.024%, the “Percentage Seq II” value is on record as 0.021%, the “Percentage Average” value came out at 0.022% and the “Counts Seq I” value came to 105. Moreover, the “Counts Seq II” value is given as 9.

HVFGNRFFTRG: the “Percentage Seq I” value was found to be 0.031%, the “Percentage Seq II” value was determined as 0.039%, the “Percentage Average” value stood at 0.035% and the “Counts Seq I” value was 135. The “Counts Seq II” value turned out to be 17.

In the case of LQPPDRSCLPKI, the “Percentage Seq I” value was found to be 0.029%, the “Percentage Seq II” value was 0.030%, the “Percentage Average” value is recorded as 0.029% and the “Counts Seq I” value amounted to 125. The “Counts Seq II” value was found to be 13.

For the sequence HVFGNRSFARG, the “Counts (raw counts for peptide sequence), Seq I” value turned out to be 78; the “Counts (raw counts for peptide sequence), Seq II” value came to 6; the “Percentage of the pool, averaged across the two sequencing samples” value is given as 0.016%; the “Percentage of the pool, Seq I” value was found to be 0.018%. For the same sequence, the “Percentage of the pool, Seq II” value is 0.014%.

As to GYLNECWYGLS, the “Percentage Seq I” value stood at 0.101%, the “Percentage Seq II” value worked out at 0.081%, the “Percentage Average” value stood at 0.091% and the “Counts Seq I” value was 441. Moreover, the “Counts Seq II” value turned out to be 35.

For CFAHRITDPDTQ, the “Percentage Seq I” value is on record as 0.023%, the “Percentage Seq II” value worked out at 0.019%, the “Percentage Average” value worked out at 0.021% and the “Counts Seq I” value was determined as 100. Also, the “Counts Seq II” value turned out to be 8.

Turning to KWGSSFFTLYRV, the “Counts (raw counts for peptide sequence), Seq I” value was determined as 49; the “Counts (raw counts for peptide sequence), Seq II” value is 4; the “Percentage of the pool, averaged across the two sequencing samples” value is recorded as 0.010%; the “Percentage of the pool, Seq I” value came out at 0.011%. Besides, the “Percentage of the pool, Seq II” value worked out at 0.009%.

Consider FQRGTRSTSWG, for which the “Percentage Seq I” value is listed as 0.054%, the “Percentage Seq II” value stood at 0.035%, the “Percentage Average” value is on record as 0.045% and the “Counts Seq I” value was 238. Further, the “Counts Seq II” value worked out at 15.

Consider HCWVRGSRNHT, for which the “Counts (raw counts for peptide sequence), Seq I” value was 54; the “Counts (raw counts for peptide sequence), Seq II” value was found to be 5; the “Percentage of the pool, averaged across the two sequencing samples” value is on record as 0.012%; the “Percentage of the pool, Seq I” value is listed as 0.012%. The “Percentage of the pool, Seq II” value was 0.012%.

Regarding CSAGRLTIDAV, the “Counts (raw counts for peptide sequence), Seq I” value turned out to be 37; the “Counts (raw counts for peptide sequence), Seq II” value was found to be 6; the “Percentage of the pool, averaged across the two sequencing samples” value was determined as 0.011%; the “Percentage of the pool, Seq I” value amounted to 0.00846%. Besides, the “Percentage of the pool, Seq II” value is 0.014%.

CYGGRTFIYAWS: the “Percentage Seq I” value stood at 8.492%, the “Percentage Seq II” value was determined as 8.097%, the “Percentage Average” value worked out at 8.295% and the “Counts Seq I” value is on record as 37156. Moreover, the “Counts Seq II” value worked out at 3489.

With FVTGNRDYTRG, the “Percentage Seq I” value stood at 0.050%, the “Percentage Seq II” value was found to be 0.063%, the “Percentage Average” value amounted to 0.056% and the “Counts Seq I” value came to 220. Also, the “Counts Seq II” value was 27.

As to CYGGRTFIYSWS, the “Counts (raw counts for peptide sequence), Seq I” value is given as 46; the “Counts (raw counts for peptide sequence), Seq II” value is 8; the “Percentage of the pool, averaged across the two sequencing samples” value stood at 0.015%; the “Percentage of the pool, Seq I” value is recorded as 0.011%. Also, the “Percentage of the pool, Seq II” value was determined as 0.019%.

Take YSCPDWVRGSRT: the “Counts (raw counts for peptide sequence), Seq I” value stood at 36; the “Counts (raw counts for peptide sequence), Seq II” value worked out at 6; the “Percentage of the pool, averaged across the two sequencing samples” value came to 0.011%; the “Percentage of the pool, Seq I” value is recorded as 0.008%. In addition, the “Percentage of the pool, Seq II” value stood at 0.014%.

As for GRLNECHVTWP, the “Counts (raw counts for peptide sequence), Seq I” value stood at 43; the “Counts (raw counts for peptide sequence), Seq II” value was 9; the “Percentage of the pool, averaged across the two sequencing samples” value was 0.015%; the “Percentage of the pool, Seq I” value is reported as 0.010%. The “Percentage of the pool, Seq II” value is on record as 0.021%.

Regarding SACGNRQIQYY, the “Counts (raw counts for peptide sequence), Seq I” value was determined as 51; the “Counts (raw counts for peptide sequence), Seq II” value is recorded as 6; the “Percentage of the pool, averaged across the two sequencing samples” value amounted to 0.013%; the “Percentage of the pool, Seq I” value is listed as 0.012%. For the same sequence, the “Percentage of the pool, Seq II” value is given as 0.014%.

On to SAWGNRQIQYH, for which the “Counts (raw counts for peptide sequence), Seq I” value worked out at 65; the “Counts (raw counts for peptide sequence), Seq II” value was 7; the “Percentage of the pool, averaged across the two sequencing samples” value is recorded as 0.016%; the “Percentage of the pool, Seq I” value was determined as 0.015%. Besides, the “Percentage of the pool, Seq II” value was 0.016%.

Consider WRDRFDQCVL, for which the “Percentage Seq I” value was found to be 2.463%, the “Percentage Seq II” value came out at 2.351%, the “Percentage Average” value was 2.407% and the “Counts Seq I” value was determined as 10776. For the same sequence, the “Counts Seq II” value is 1013.

Consider FVAGNRDHTRG, for which the “Percentage Seq I” value is 0.023%, the “Percentage Seq II” value was 0.016%, the “Percentage Average” value is 0.020% and the “Counts Seq I” value turned out to be 102. The “Counts Seq II” value was 7.

As to HQECWARGSRE, the “Counts (raw counts for peptide sequence), Seq I” value came out at 68; the “Counts (raw counts for peptide sequence), Seq II” value was 5; the “Percentage of the pool, averaged across the two sequencing samples” value stood at 0.014%; the “Percentage of the pool, Seq I” value is given as 0.016%. The “Percentage of the pool, Seq II” value is listed as 0.012%.

Take ASWLPSPCKFN: the “Percentage Seq I” value is given as 0.029%, the “Percentage Seq II” value came to 0.037%, the “Percentage Average” value is reported as 0.033% and the “Counts Seq I” value was 128. Besides, the “Counts Seq II” value came out at 16.

Consider PFAKRVAAQGGC, for which the “Counts (raw counts for peptide sequence), Seq I” value came to 24; the “Counts (raw counts for peptide sequence), Seq II” value is 6; the “Percentage of the pool, averaged across the two sequencing samples” value is listed as 0.010%; the “Percentage of the pool, Seq I” value came out at 0.00549%. Further, the “Percentage of the pool, Seq II” value amounted to 0.014%.

For the origin of these results see publication PMC12207370, “Macrocyclic Peptide Probes for Immunomodulatory Protein CD59: Potent Modulators of Bacterial Toxin Activity and Antibody‐Dependent Cytotoxicity” (Angewandte Chemie (International Ed. in English), 2025).
